{"source": "patent US9345743B2", "about": "“Agent for promoting proliferation of bifidobacteria” (MORINAGA MILK INDUSTRY CO., LTD., priority 2011, dated 2016)", "molecules": {"B1": {"name": "bovine lactoferrin (protein, UniProt P24627 20-708, looked up)", "Lactotransferrin": "APRKNVRWCTISQPEWFKCRRWQWRMKKLGAPSITCVRRAFALECIRAIAEKKADAVTLDGGMVFEAGRDPYKLRPVAAEIYGTKESPQTHYYAVAVVKKGSNFQLDQLQGRKSCHTGLGRSAGWIIPMGILRPYLSWTESLEPLQGAVAKFFSASCVPCIDRQAYPNLCQLCKGEGENQCACSSREPYFGYSGAFKCLQDGAGDVAFVKETTVFENLPEKADRDQYELLCLNNSRAPVDAFKECHLAQVPSHAVVARSVDGKEDLIWKLLSKAQEKFGKNKSRSFQLFGSPPGQRDLLFKDSALGFLRIPSKVDSALYLGSRYLTTLKNLRETAEEVKARYTRVVWCAVGPEEQKKCQQWSQQSGQNVTCATASTTDDCIVLVLKGEADALNLDGGYIYTAGKCGLVPVLAENRKSSKHSSLDCVLRPTEGYLAVAVVKKANEGLTWNSLKDKKSCHTAVDRTAGWNIPMGLIVNQTGSCAFDEFFSQSCAPGADPKSRLCALCAGDDQGLDKCVPNSKEKYYGYTGAFRCLAEDVGDVAFVKNDTVWENTNGESTADWAKNLNREDFRLLCLDGTRKPVTEAQSCHLAVAPNHAVVSRSDRAAHVKQVLLHQQALFGKNGKNCPDKFCLFKSETKNLLFNDNTECLAKLGGRPTYEEYLGTEYVTAIANLKKCSTSPLLEACAFLTR"}}, "assay_in_all_cases": "Bifidobacterium proliferation promoting activity, turbidity at 630 nm after 16 h anaerobic culture in MRS medium", "assay_type_in_all_cases": "cell-based", "details_in_all_cases": "37° C.", "key": {"[1]": {"system": "Bifidobacterium bifidum ATCC 29521", "description": "(§1) A 9.375 μM aqueous solution of each peptide was adjusted to pH 6.5 with an HCl aqueous solution, and subjected to filtration sterilization using a 0.22-μm membrane. Each peptide solution was diluted with dilution water to obtain 9.375 μM, 3.125 μM, 0.9375 μM, and 0.3125 μM sample solutions. As the dilution water, purified water adjusted to pH 6.5 with an HCl solution and sterilized at 115° C. for 15 minutes was used.\n(§2) Bifidobacterium proliferation promoting activities of the aforementioned peptides were evaluated as follows.\n(§3) The bifidobacteria used for the experiment were as follows. These strains can be obtained from ATCC (American Type Culture Collection, http://www.atcc.org/). • Bifidobacterium infantis ATCC 15697^T • Bifidobacterium breve ATCC 15700^T • Bifidobacterium bifidum ATCC 29521^T\n(§4) A cell suspension of each strain (100 μL) cryopreserved in a 10% skim milk medium was added to the MRS liquid medium (3 mL), and culture was performed at 37° C. for 16 hours under an anaerobic condition. The culture medium (100 μL) was added to the MRS liquid medium (3 mL). The MRS liquid medium was prepared by dissolving Difco Lactobacilli MRS Broth (5.5 g, BD, “Difco” is a registered trademark of Difco Laboratories, Incorporated), and L-cysteine monohydrochloride monohydrate (50 mg, Wako Pure Chemical Industries, Co., Ltd.) in pure water so as to obtain a final volume of 100 mL, adjusting the solution to pH 6.5 with an HCl aqueous solution, and sterilizing the solution at 115° C. for 15 minutes. Further, a concentrated medium containing the components at twofold concentrations was prepared in the same manner as described above, except that Difco Lactobacilli MRS Broth and L-cysteine monohydrochloride monohydrate were used in amounts of 11 g and 100 mg, respectively.\n(§5) The aforementioned culture medium was diluted with the MRS liquid medium so as to obtain a turbidity of 0.8 measured at a wavelength of 630 nm. This diluted culture medium was further diluted 100 times with the MRS liquid medium. The obtained diluted culture medium is referred to as 1% diluted culture medium.\n(§6) Anaerobic culture was performed at 37° C. for 16 hours in a mixture of 100 μL of the twofold concentrated culture medium, 80 μL of a sample solution or the dilution water, and 20 μL of the 1% diluted culture medium (inoculation volume was 0.1%) or the MRS liquid medium (inoculation volume was 0%) on a 96-well plate (FALCON 353072). The final concentration of the peptide in the mixture was 3.75 μM, 1.25 μM, 0.375 μM, 0.125 μM, or 0 μM.\n(§7) After the culture, turbidity of each culture medium was measured at a wavelength of 630 nm, and the proliferation promoting ratio (%) was calculated in accordance with the following equation. Proliferation promoting ratio (%)=(ODS1−ODS0)/(ODC1−ODC0)×100−100\n(§8) ODS1: Turbidity observed after culture performed at a sample concentration of 3.75 to 0.125 μM and inoculation volume of 0.1% for 16 hours\n(§9) ODS0: Turbidity observed after culture performed at a sample concentration of 3.75 to 0.125 μM and inoculation volume of 0% for 16 hours\n(§10) ODC0: Turbidity observed after culture performed at a sample concentration of 0 μM and inoculation volume of 0% for 16 hours\n(§11) Bifidobacterium proliferation promoting activities of the aforementioned peptides were evaluated in the same manner as that of Example 1."}, "[2]": {"system": "Bifidobacterium breve ATCC 15700", "description": "as §1, §2, §3, §4, §5, §6, §7, §8, §9, §10, §11"}, "[3]": {"system": "Bifidobacterium infantis ATCC 15697", "description": "as §1, §2, §3, §4, §5, §6, §7, §8, §9, §10, §11"}}}
{"molecule": "B1", "values": [{"measurement": "Proliferation promoting ratio (%)", "setting": "[1]; B. bifidum ATCC 29521, 0.125 μM", "value": 8, "unit": "%"}, {"measurement": "Proliferation promoting ratio (%)", "setting": "[1]; B. bifidum ATCC 29521, 0.375 μM", "value": 8, "unit": "%"}, {"measurement": "Proliferation promoting ratio (%)", "setting": "[1]; B. bifidum ATCC 29521, 1.25 μM", "value": 10, "unit": "%"}, {"measurement": "Proliferation promoting ratio (%)", "setting": "[1]; B. bifidum ATCC 29521, 3.75 μM", "value": 12, "unit": "%"}, {"measurement": "Proliferation promoting ratio (%)", "setting": "[2]; B. breve ATCC 15700, 0.125 μM", "value": 2, "unit": "%"}, {"measurement": "Proliferation promoting ratio (%)", "setting": "[2]; B. breve ATCC 15700, 0.375 μM", "value": 4, "unit": "%"}, {"measurement": "Proliferation promoting ratio (%)", "setting": "[2]; B. breve ATCC 15700, 1.25 μM", "value": 8, "unit": "%"}, {"measurement": "Proliferation promoting ratio (%)", "setting": "[2]; B. breve ATCC 15700, 3.75 μM", "value": 21, "unit": "%"}, {"measurement": "Proliferation promoting ratio (%)", "setting": "[3]; B. infantis ATCC 15697, 0.125 μM", "value": 1, "unit": "%"}, {"measurement": "Proliferation promoting ratio (%)", "setting": "[3]; B. infantis ATCC 15697, 0.375 μM", "value": 1, "unit": "%"}, {"measurement": "Proliferation promoting ratio (%)", "setting": "[3]; B. infantis ATCC 15697, 1.25 μM", "value": 13, "unit": "%"}, {"measurement": "Proliferation promoting ratio (%)", "setting": "[3]; B. infantis ATCC 15697, 3.75 μM", "value": 23, "unit": "%"}]}
